From article PMC3814156 (Molecular Biology of the Cell, 2013)

Target: ezrin FERM domain (residues 1–298), untagged (UniProt P15311 1-298)
Assay: pull-down

Chain of ezrin FERM domain (residues 1–298), untagged (P15311 1-298): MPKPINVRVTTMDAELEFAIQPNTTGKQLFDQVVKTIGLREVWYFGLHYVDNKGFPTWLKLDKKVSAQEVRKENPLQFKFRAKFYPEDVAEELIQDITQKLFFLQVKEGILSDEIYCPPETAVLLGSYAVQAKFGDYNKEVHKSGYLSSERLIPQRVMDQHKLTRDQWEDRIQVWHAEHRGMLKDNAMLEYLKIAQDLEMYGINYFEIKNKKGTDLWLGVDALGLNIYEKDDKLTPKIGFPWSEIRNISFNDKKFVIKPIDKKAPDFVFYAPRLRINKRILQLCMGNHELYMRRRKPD

B1: SUMO-tagged E3KARP (natural protein, human, UniProt Q15599 1-337, looked up)
chain: MAAPEPLRPRLCRLVRGEQGYGFHLHGEKGRRGQFIRRVEPGSPAEAAALRAGDRLVEVNGVNVEGETHHQVVQRIKAVEGQTRLLVVDQETDEELRRRQLTCTEEMAQRGLPPAHDPWEPKPDWAHTGSHSSEAGKKDVSGPLRELRPRLCHLRKGPQGYGFNLHSDKSRPGQYIRSVDPGSPAARSGLRAQDRLIEVNGQNVEGLRHAEVVASIKAREDEARLLVVDPETDEHFKRLRVTPTEEHVEGPLPSPVTNGTSPAQLNGGSACSSRSDLPGSDKDTEDGSAWKQDPFQESGLHLSPTAAEAKEKARAMRVNKRAPQMDWNRKREIFSNF
half-life of dissociation from ezrin FERM beads: ~16 min

B2: SUMO-tagged EBP50 (natural protein, human, UniProt O14745 1-358, looked up)
chain: MSADAAAGAPLPRLCCLEKGPNGYGFHLHGEKGKLGQYIRLVEPGSPAEKAGLLAGDRLVEVNGENVEKETHQQVVSRIRAALNAVRLLVVDPETDEQLQKLGVQVREELLRAQEAPGQAEPPAAAEVQGAGNENEPREADKSHPEQRELRPRLCTMKKGPSGYGFNLHSDKSKPGQFIRSVDPDSPAEASGLRAQDRIVEVNGVCMEGKQHGDVVSAIRAGGDETKLLVVDRETDEFFKKCRVIPSQEHLNGPLPVPFTNGEIQKENSREALAEAALESPRPALVRSASSDTSEELNSQDSPPKQDSTAPSSTSSSDPILDFNISLAMAKERAHQKRSSKRAPQMDWSKKNELFSNL
half-life of dissociation from ezrin FERM beads: ~10 min
